This assay deals with Firefly luciferase target RNA. The assay can be described thus: Dual luciferase reporter assay of paCas13 fragments under blue light stimulation. The format is cell-based. To be noted: 488 nm blue light for 24 hours. On the procedure:
Specifically, to evaluate the changes in protein levels, HEK293T cells (ATCC) were co-transfected with 10 ng of a double luciferase reporter plasmid (Promega), 75 ng of each inducible Cas13 fragment expressing the plasmid, and 100 ng of a crRNA expression plasmid. 16 hours prior to transfection, the cells were placed in a 96-well plate (Corning) and allowed to grow until reaching 80% confluency. On the next day, 10 μL of Opti-MEM and 10 μL of Opti-MEM containing 0.6 μL of lipofectamine LTX and 0.26 μL of PLUS reagent and all transfected DNA plasmids were mixed, and a total of 20 μL of Opti-MEM I reducing serum medium (ThermoFisher) was added to each well. All solutions were incubated for 5 minutes before slowly added to the cells. […] The experiment was performed in triplicate. The decrease in the target RNA, the Firefly transcript, was confirmed by comparing the expression value at the protein level of the control group Renilla.
Luciferase reporter assay was performed to confirm whether the Cas13b protein was activated by light stimulation when the construct designed in Example 3 was used.
To test the light-inducible RNA targeting of paCas13, the target RNA knockdown activity of paCas13 fragments was evaluated using a dual luciferase system under the blue light stimulation for 24 hours with an LED plate emitting 488 nm of blue light (FIG. 8). […]

B1: nMagH: paCas13 fragments fused with pMag and nMagH (nMag with M135I and M165I mutations) (protein)
chain: HTLYAPGGYDIMGYLDQIGNRPNPQVELGPVDTSCALILCDLKQKDTPIVYASEAFLYMTGYSNAEVLGRNCRFLQSPDGMVKPKSTRKYVDSNTINTIRKAIDRNAEVQVEVVNFKKNGQRFVNFLTIIPVRDETGEYRYSMGFQCETE
modifications: nMagHigh1 amino acid sequence
On to B1, for which the “Target mRNA cleavage with pMag in combination with dimerization partner” value is listed as “Efficient target mRNA cleavage was seen”.

Values taken from patent US12709742B2, “RNA expression modulating or editing method via regulation of Cas13 protein” (Korea Advanced Institute of Science and Technology, priority 2021, dated 2026).
